1 substance from paper PMC11389407 can be followed below.

In experiment [1] the target is F_((ecto))-WT (1–513 aa) fused with the T4 fibritin trimerization domain (respiratory syncytial virus (strain of the construct not stated) | T4) (UniProt P03420). Kind of experiment: MST; RED-NHS-labelled F_((ecto)) protein at 50 nM pretreated with DMSO, IGF1R titrated from 30.6 pM to 2 µM, PBS, Monolith NT.115.
The target of experiment [2] is F_((ecto))-K394R (F_((ecto))-WT with substitution of Lys394 with Arg394) fused with the T4 fibritin trimerization domain (respiratory syncytial virus (strain of the construct not stated) | T4) (UniProt P03420). The experiment is described as above.

What is called Kd is a measure of binding affinity in units of concentration. Consider “extracellular domain of the human IGF1R protein (Met 1−Asn 932) (from UniProt P08069 31-932) (domain or fragment)”, for which the Kd in experiment [1] came to 11 nM; in experiment [2], 12 nM.
